Data: the supplement of paper PMC9170038

System: MS2 coat protein
Experiment: apparent KD of MS2 coat protein; designed switch direction (-1 OFF switch, 1 ON switch): -1; higher = weaker reporter binding
Method in brief: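 An oligonucleotide input, 200 uM small-molecule ligand, or no input was present during titration of SNAP-549-labelled MS2 coat protein, which was doubled from 0.7 or 1.5 nM to 3 µM. Designed RNA switches had been transcribed on Illumina chips by stalled E. coli RNA polymerase. Apparent KD per design is the median over clusters of curves fitted to normalised cluster fluorescence.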

[1] = input ligand: microRNA oligo, concentration not stated
[2] = Eterna round: R95, input ligand: FMN 200 uM
[3] = Eterna round: R95, input ligand: microRNA oligo, concentration not stated
[4] = Eterna round: R95, input ligand: none

AAAUGGAACAGAGGAUAUAGGGACAUGAGGAUCACCCAUGUUUUUUUUGGUUGGGUGGGUUUGGGCUAGAAGGCUGGGAAGAAA [Kawasakiqro] (Eterna round: R96, puzzle: Exclusion NG 2)
apparent KD of MS2 coat protein (input ligand: FMN 200 uM): 30.2 nM
apparent KD of MS2 coat protein [1]: 26.8 nM
apparent KD of MS2 coat protein (input ligand: none): 33 nM

AAUAACAAGCUGAUCCUAAACAUGAGGAUCACCCAUGUGCUCGUCUUGUAAAGUACUAUCACGAAAGUGAUAGUACA [MOD7 of my MOD of Eli's v1-59 (mutation at 11 A to U)] (Eterna round: R97, puzzle: Sensor, turn-off variant 1)
apparent KD of MS2 coat protein (input ligand: FMN 200 uM): 118 nM
apparent KD of MS2 coat protein (input ligand: none): 142 nM

AGUAAGCUAGGAUAUGCUUAGGGAAAGCCUUCCUUCCACAAACUUGAGGAUCACCCAAGUAGAAGGAGCUAAAU [jl-ex2.4.46 ViennaUCT mod] (Eterna round: R97, puzzle: Exclusion 2)
apparent KD of MS2 coat protein (input ligand: FMN 200 uM): 15.4 nM
apparent KD of MS2 coat protein (input ligand: none): 13.5 nM

CUGAGUAGUCAGGAUAUGCUGUACAAAAGUACAGCAGAAGGGAUUACAUGAGGAUCACCCAUGUGUACUUCAUG [)mei Ex6 B20] (Eterna round: R97, puzzle: Exclusion 6)
apparent KD of MS2 coat protein (input ligand: FMN 200 uM): 401 nM
apparent KD of MS2 coat protein (input ligand: none): 184 nM

GCGCGAAGGUAGGAUAUCCGGGCAUCUUGCCGCGGAGAAGGACCCACAUGAGGAUCACCCAUGUGGUGAUCCUG [eternacac ex6r4 sub12] (Eterna round: R97, puzzle: Exclusion 6)
apparent KD of MS2 coat protein (input ligand: FMN 200 uM): 40.8 nM
apparent KD of MS2 coat protein (input ligand: none): 19.4 nM

CCUUUGUCAGGAUAUCAGAAAACGCCCGUAGGGAGCGCAAAUGAGAAGGGACAUGAGGAUCACCCAUGUAAAGA [Edvereri] (puzzle: Exclusion 4)
apparent KD of MS2 coat protein [2]: 204 nM
apparent KD of MS2 coat protein [3]: 50.1 nM
apparent KD of MS2 coat protein [4]: 53 nM

AUUGUUUAUGUAGGAUAUGCCUGGCGUGCCUUUGCAGAAGGACAUGAGGAUCACCCAUGUAUUGCGGUCUGCGUUCAGAUCGCG [salish99_ExNG1_r4_034] (Eterna round: R96, puzzle: Exclusion NG 1)
apparent KD of MS2 coat protein (input ligand: FMN 200 uM): 46.9 nM
apparent KD of MS2 coat protein [1]: 22.5 nM
apparent KD of MS2 coat protein (input ligand: none): 27.4 nM

GAUCCACAUGAGGAUCACCCAUGUGAGGAUAUGAUACUAUGUACUUCGGUACAUAGUAUCAGAAGGCACGGGUC [Ex1-3: 55] (puzzle: Exclusion 1)
apparent KD of MS2 coat protein [3]: 72.5 nM

CGGCGACAUGAGGAUCACCCAUGUGAGGAUAUGACGGGAAAAGCGUGAGCAGUUUGUGUCAGAAGGCGCGUAGG [salish99_ex1_r4_081] (Eterna round: R97, puzzle: Exclusion 1)
apparent KD of MS2 coat protein (input ligand: FMN 200 uM): 20.2 nM
apparent KD of MS2 coat protein (input ligand: none): 28.7 nM

UGUUGUCGCGUAGGAUAUGAGGAUCACCCAUAUAAAGGAUAUGAAAAGAAGGUUCUGAGGAUUACCCAGAAGGACGGGACAACU [pwkr exNG2 2xF5 2xFMN.17] (Eterna round: R96, puzzle: Exclusion NG 2)
apparent KD of MS2 coat protein (input ligand: FMN 200 uM): 207 nM
apparent KD of MS2 coat protein [1]: 35 nM
apparent KD of MS2 coat protein (input ligand: none): 48.7 nM

AGCAUGGUAGGAUAUACGGAGCAUUAGGGUUUGUUAUGUGGACAUGAGGAUCACCCAUGUAGAAGGGCCGUGCA [Mat - Exclusion 2 - Mod of JL - D82] (puzzle: Exclusion 2)
apparent KD of MS2 coat protein [3]: 32.6 nM

AGUAAUUCAAGAGGAUAUCACAUGAGGAUCACCCAUGUAUAGCGCGCUACGCUAGUCCUCGUAUUUGAGAAGGUUUGAUAAAUG [JL ViennaUCT Quve mod 1] (Eterna round: R96, puzzle: Exclusion NG 2)
apparent KD of MS2 coat protein (input ligand: FMN 200 uM): 14.4 nM
apparent KD of MS2 coat protein [1]: 12.5 nM
apparent KD of MS2 coat protein (input ligand: none): 17.1 nM

AACGGUGGGUAGGAUAUCCGGUUCUAGUUGCCAGGAGAAGGGCCCACAUGAGGAUCACCCAUGUGGGUGGGCUC [Maesri] (puzzle: Exclusion 6)
apparent KD of MS2 coat protein [3]: 43.6 nM

GGUACUCAAAGAGUACCAAUACGAACAUGAGGAUCACCCAUGUAGGAUAUGCUACUCAAAGAGUAGCAGAAGGACAUGUGCCUU [Far Half Aptamer v5] (Eterna round: R96, puzzle: Exclusion NG 3)
apparent KD of MS2 coat protein (input ligand: FMN 200 uM): 254 nM
apparent KD of MS2 coat protein [1]: 25.3 nM
apparent KD of MS2 coat protein (input ligand: none): 29.5 nM

CUUCUCAGAGGAUAUCACGGUAAUAACAUGAGGAUCACCCAUGUGGAAUUCGUGUCCCUGUGAGAAGGCUGAGAAG [Bezavere] (puzzle: Exclusion 5)
apparent KD of MS2 coat protein [2]: 33.2 nM
apparent KD of MS2 coat protein [3]: 12.2 nM
apparent KD of MS2 coat protein [4]: 16 nM

AAGAAACAUGAGGAUCACCCAUGUGAGGAUAUGAAAAAGAAAAGAAAAGAAAGAAGGUUCAGAAGGCACAAAGG [salish99-ex1_r3_027] (puzzle: Exclusion 1)
apparent KD of MS2 coat protein [2]: 48.6 nM
apparent KD of MS2 coat protein [3]: 45.8 nM
apparent KD of MS2 coat protein [4]: 28.5 nM

GUUAAUUGUCACAUGGGUGACAUGAGGAUCACCCAUGUCACAAGCUUUUUGCUCGUCUUAUAAUUAACCCAUGUGAC [Stov1/12-A2] (Eterna round: R97, puzzle: Sensor, turn-off variant 1)
apparent KD of MS2 coat protein (input ligand: FMN 200 uM): 14.7 nM
apparent KD of MS2 coat protein (input ligand: none): 13.9 nM

AUCUCCUCUGUCAGGAUAUAUAAACUGUUGCAGUGGUAGAAGGGACAUGAGGAUCACCCAUGUAAUAUAAAUAA [Bivege] (puzzle: Brourd's mod of Exclusion 4)
apparent KD of MS2 coat protein [3]: 26.6 nM

CAAAAGGUAGGAUAUACGAAAAAAAAGGGUAGAAAAAAAACACAUGAGGAUCACCCAUGUAGAAGGACCAAAAA [salish99_ex2_r3_055] (puzzle: Exclusion 2)
apparent KD of MS2 coat protein [2]: 67.6 nM
apparent KD of MS2 coat protein [3]: 22 nM
apparent KD of MS2 coat protein [4]: 24.5 nM

ACAUGAGGAUCACCCAUGUCCGGCUGGUCUGUUCCGGUUGUCGAGGAUAUAGUUCGGUGUUCGCGCUAGAAGGUGGGAGCUGGA [Aenatbe mod 54] (Eterna round: R96, puzzle: Exclusion NG 3)
apparent KD of MS2 coat protein (input ligand: FMN 200 uM): 186 nM
apparent KD of MS2 coat protein [1]: 103 nM
apparent KD of MS2 coat protein (input ligand: none): 136 nM

CUCCUCAUGACGCCUAAACACAUGAGGAUCACCCAUGUACAGGCUUUUUGUCGUCUUAUAAUAAAACCGAGGAUACG [Orlaorusti] (puzzle: Sensor v3, turn-off variant 1)
apparent KD of MS2 coat protein [2]: 20.2 nM
apparent KD of MS2 coat protein [3]: 116 nM
apparent KD of MS2 coat protein [4]: 23.2 nM

UUCGCGGAAGGAUAUACAUGAGGAUCACCCAUGUGCUUAUGCGCAACAGCUUCGCAGUGUAGAAGGUUCAGAGU [Eternabot (L1) Solution 3] (Eterna round: R97, puzzle: Exclusion 3)
apparent KD of MS2 coat protein (input ligand: FMN 200 uM): 18.9 nM
apparent KD of MS2 coat protein (input ligand: none): 23.4 nM

UUAGAUAGGUCAGGAUAUCGAUGAUUGAAUUGUAUGAUUUACAUGAGGAUCACCCAUGUUUUGUACGAGAAGGGACGUUAGAUU [JR_ExcNG2_Sub018] (Eterna round: R96, puzzle: Exclusion NG 2)
apparent KD of MS2 coat protein (input ligand: FMN 200 uM): 26.7 nM
apparent KD of MS2 coat protein [1]: 17.6 nM
apparent KD of MS2 coat protein (input ligand: none): 37.2 nM

GGGCAAUUAGGAUAUACAUGAGGAUCACCCAUGUGGAAGCCCGGACAGGUAAUCCACUGUAGAAGGGAUUGCGG [Userqube] (puzzle: Exclusion 3)
apparent KD of MS2 coat protein [3]: 13.5 nM

GGUUGUUGUUUCCGUUCUUACAUGAGGAUCACCCAUGUUUCUUGUCGUGCUCGCGUUGCUCGUCUGUCUGUCUGUUG [salish99_TOv1_r3_072] (puzzle: Sensor v3, turn-off variant 1)
apparent KD of MS2 coat protein [2]: 55.7 nM
apparent KD of MS2 coat protein [3]: 36.2 nM
apparent KD of MS2 coat protein [4]: 63 nM

GGAACGCGAGGAUAUACAAGGCCGGAAACGGAAAUAGCCUCACAUGAGGAUCACCCAUGUAGAAGGCGCGGAGA [AK-MS2ROC-r4-exclusion2-26] (Eterna round: R97, puzzle: Exclusion 2)
apparent KD of MS2 coat protein (input ligand: FMN 200 uM): 175 nM
apparent KD of MS2 coat protein (input ligand: none): 22.1 nM

AGUAACCGUCACGAAAGUGAUGGUUACACAAGCAAAUGUACAUGAGGAUCACCCAUGUCCUCAUUUGCUCGUCUUGU [Sensor 3 - 48] (puzzle: Sensor v3, turn-off variant 2)
apparent KD of MS2 coat protein [2]: 101 nM
apparent KD of MS2 coat protein [3]: 398 nM
apparent KD of MS2 coat protein [4]: 121 nM

GGUGCGUUUGUGAGGAUAUGCUGGUCCUUGGGUCAGCAGAAGGCACAUGAGGAUCACCCAUGUGGUGUCGUACC [salish99_Bmod_Ex4_032] (puzzle: Brourd's mod of Exclusion 4)
apparent KD of MS2 coat protein [3]: 178 nM

AAACCUUGUGUCAGGAUAUGCAGAGGGAACGCCAGGCAGAAGGGACAUGAGGAUCACCCAUGUACAUUUUAAAC [BmEX4 B.19] (Eterna round: R97, puzzle: Brourd's mod of Exclusion 4)
apparent KD of MS2 coat protein (input ligand: FMN 200 uM): 487 nM
apparent KD of MS2 coat protein (input ligand: none): 39.2 nM

AAUUAUUAUUGAGGAUAUCGUAGUGAAACACUACGAGAAGGCGGUAUAAACAUGAGGAUCACCCAUGUGAGCCUGAUGCUUAUG [Ex NG1 #44] (Eterna round: R96, puzzle: Exclusion NG 1)
apparent KD of MS2 coat protein [1]: 20.6 nM

GUUCUUCCUGUGAGGAUAUCCAUGUGUCGGUGUGUGGAGAAGGUACAUGAGGAUCACCCAUGUCACCCGCGUUA (Eterna round: R97, puzzle: Brourd's mod of Exclusion 4)
apparent KD of MS2 coat protein (input ligand: FMN 200 uM): 24.3 nM
apparent KD of MS2 coat protein (input ligand: none): 19.2 nM

AGGGAUAAAGGAUAUACAUGAGGAUCACCCAUGUUGAGGAAAGUGAGAUGAGGAGGAAGUAGAAGGUUAGGCGA [JR_Exclu3_Sub085] (puzzle: Exclusion 3)
apparent KD of MS2 coat protein [2]: 37.2 nM
apparent KD of MS2 coat protein [3]: 37.7 nM
apparent KD of MS2 coat protein [4]: 47.4 nM

CCGACGUGAGGAUAUUAGAACGAGCAGACCUGAGCUCGUUCUGAGAAGGCACAUGAGGAUCACCCAUGUGAGAA [Eternabot (Original) Solution 50] (Eterna round: R97, puzzle: Exclusion 4)
apparent KD of MS2 coat protein (input ligand: FMN 200 uM): 352 nM
apparent KD of MS2 coat protein (input ligand: none): 31.4 nM

ACUUACCAUGUCAGGAUAUGUACUUAGAACGCGAUGCAGAAGGGACAUGAGGAUCACCCAUGUAAUGUCUGAUA [Eternabot (L2) Solution 2] (Eterna round: R97, puzzle: Brourd's mod of Exclusion 4)
apparent KD of MS2 coat protein (input ligand: FMN 200 uM): 51.6 nM
apparent KD of MS2 coat protein (input ligand: none): 21.1 nM
